How the values were obtained:
[1] = target: RNase J K649Q (His-tagged) (Helicobacter pylori) (UniProt P56185); assay: AUC
[2] = target: RNase J (His-tagged, wild type) (Helicobacter pylori) (UniProt P56185); assay: AUC
[3] = target: RNase J K649A (His-tagged) (Helicobacter pylori) (UniProt P56185); assay: AUC
[4] = target: RNase J D185A (His-tagged) (Helicobacter pylori) (UniProt P56185); assay: AUC
crystal structure = target: the molecule itself; assay: crystal structure

For “RNase J K649Q (His-tagged) (from UniProt P56185 1-689) (enzyme)”, the stoichiometry N [1] was 2.

With “RhpA (His-tagged) (from UniProt O25029 1-492) (enzyme)” the stoichiometry N [2] was 1 RNase J:RhpA.

“RNase J K649A (His-tagged) (from UniProt P56185 1-689) (enzyme)” was tested, and the stoichiometry N [3] was 2.

Molecule “RNase J D185A (His-tagged) (from UniProt P56185 1-689) (enzyme)” has a stoichiometry N [4] of 2.

Molecule “RNase J (His-tagged, wild type) (from UniProt P56185 1-689) (enzyme)” has a percent of the protein as dimer [2] of 40%, a percent of the protein as monomer [2] of 60% and a stoichiometry N [2] of 2.

B1: RNase J residues 139-691 (crystallised construct) (domain or fragment, H. pylori strain 26695, UniProt P56185 137-689, looked up)
chain: SKASVKITPLGGLGEIGGNMMVIETPKSAIVIDAGMSFPKEGLFGVDILIPDFSYLHQIKDKIAGIIITHAHEDHIGATPYLFKELQFPLYGTPLSLGLIGSKFDEHGLKKYRSYFKIVEKRCPISVGEFIIEWIHITHSIIDSSALAIQTKAGTIIHTGDFKIDHTPVDNLPTDLYRLAHYGEKGVMLLLSDSTNSHKSGTTPSESTIAPAFDTLFKEAQGRVIMSTFSSNIHRVYQAIQYGIKYNRKIAVIGRSMEKNLDIARELGYIHLPYQSFIEANEVAKYPDNEILIVTTGSQGETMSALYRMATDEHRHISIKPNDLVIISAKAIPGNEASVSAVLNFLIKKEAKVAYQEFDNIHVSGHAAQEEQKLMLRLIKPKFFLPVHGEYNHVARHKQTAISCGVPEKNIYLMEDGDQVEVGPAFIKKVGTIKSGKSYVDNQSNLSIDTSIVQQREEVASAGVFVATIFVNKNKQALLESSQFSSLGLVGFKDEKPLIKEIQGGLEVLLKSSNAEILNNPKKLEDHTRNFIRKALFKKFRKYPAIICHAHSF
B1: binds (crystal structure).
